IntAct's records for PubMed 19628817

B1: Succinate dehydrogenase assembly factor 2, mitochondrial (Homo sapiens), Q9NX18 (parent)
chain: MAVSTVFSTSSLMLALSRHSLLSPLLSVTSFRRFYRGDSPTDSQKDMIEIPLPPWQERTDESIETKRARLLYESRKRGMLENCILLSLFAKEHLQHMTEKQLNLYDRLINEPSNDWDIYYWATEAKPAPEIFENEVMALLRDFAKNKNKEQRLRAPDLEYLFEKPR

Variants of: B1
Conditions: with sdha_human SDHA

effect of a mutation on the interaction	Variant
disrupting interaction strength	G78R
